The data set in a line: amyloid nucleation score (Sup35N fusion, yeast selection) (log enrichment); library NNK3; higher = more nucleation; inactive = no reads after selection. Put shortly:
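Growth for 7 days at 30°C on medium lacking adenine and uracil followed a 24-hour induction with 100 μM copper sulfate of psi-negative yeast expressing peptides of 20 random codons fused to Sup35N. Input and output plasmid inserts were sequenced with Illumina, and sequences with under 100 input reads were excluded. Nucleation score is the DiMSum log enrichment of output over input reads, centred on the mode score of non-aggregating sequences.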

± gives the uncertainty stated by the source.

With TWLSFIRLNMMPINTSTCYP, the amyloid nucleation score result is “inactive”.
Then FLLERLSV, with “inactive”; and RYVEWYLR, with “inactive”; and SYQLCACK, with “inactive”.
In the case of LQYYLRPRFNLRLYGAIPPA it was “inactive”; in that of VVMMFVVIYIYALRRPY, 0.143 ± 0.25.
On to IGVIWRFVLWSGPRTDSQVS, for which the amyloid nucleation score result is “inactive”.
Regarding VNSMSC, the amyloid nucleation score entry is “inactive”.
With SYYVNVRYWSITCPIWGLSD, the amyloid nucleation score came out at 2.29 ± 0.08.
On to PNRNYVCGMSCYGAVVSELR, for which the amyloid nucleation score entry is “inactive”.
In the case of LIFPWDLRKGAHHPGLRSCI it was “inactive”; in that of GIYGRTGHSYVF, “inactive”.
Take AGQFPREQ: the amyloid nucleation score entry was “inactive”.
The substance ETAGMGTPSVRAHGLASGSV yielded an amyloid nucleation score of -0.672 ± 1.8.
The substance KDSQALHRFSNTILRYL came in with an amyloid nucleation score of -0.406 ± 0.82.
The substance GSVGFIIKGWWSTE registered an amyloid nucleation score of 0.621 ± 0.26.
In the case of DYALALVFAYCYEDNRMCCP, the amyloid nucleation score entry is “inactive”.
Regarding HIVPAVCT, the amyloid nucleation score result is “inactive”.
Then WSNSCYEC, with “inactive”; and VALWGSWRRPWDAVAFDRTG, with “inactive”; and ANGRN, with “inactive”.
For the substance IVWTVFNALQPLGNALRVSV, the amyloid nucleation score entry is “inactive”.
For PFSSLASVVPLRGFG, the amyloid nucleation score result was “inactive”.
Take WFERCLCLLTTRIKYLFSAD: the amyloid nucleation score result is “inactive”.
KRSHY: the amyloid nucleation score result was “inactive”.
Turning to FALSVVQG, the amyloid nucleation score entry is “inactive”.
In the case of YSVTAHPLDHTNPRGNYPDH it was “inactive”; in that of KNINVLYHICAALKSCAFCT, “inactive”.
Consider RPRWFGPRSVVGMRASCTCW, for which the amyloid nucleation score entry was “inactive”.
Take VLFSFAMLFKACLACFISCV: the amyloid nucleation score result was “inactive”.
As to IWNRLESFHCHILMVTFHVN, the amyloid nucleation score result was “inactive”.
ILGIIMI: the amyloid nucleation score result was “inactive”.
Then AIEQSLDWF, with “inactive”.
Turning to VNYDSVLYLVFLCIYLHKNR, the amyloid nucleation score result is “inactive”.
As for NYLGVTYCSYSS, the amyloid nucleation score entry is “inactive”.
Regarding KYKLTLYDNAVSGGDALHLR, the amyloid nucleation score result was “inactive”.
For MNRTFVIIVKNVASMIKDNR, the amyloid nucleation score is 2.1 ± 0.1.
For EGRDQDNIPLMNTTGMCFGA, the amyloid nucleation score result is “inactive”.
In the case of DVLGCPNMEVCWSGFLSQNY it was “inactive”; in that of NVQQALIHVSAHGCRFFLTC, 2.71 ± 0.065; in that of RHLDNFNINVTLNLSFRVGM, 2.52 ± 0.089.
In the case of GMSSLIGIDMNLSEKFGYPY, the amyloid nucleation score entry was “inactive”.
Regarding YSEYMVTNRKVSAGHTARWD, the amyloid nucleation score result is “inactive”.
In the case of ELEYAHVIRGKKRCHSSRVV, the amyloid nucleation score result is “inactive”.
As to RYFTLISYVVVVEVSLEKPW, the amyloid nucleation score entry was “inactive”.
On to SLGSCFSTCAVVHQRMKLGG, for which the amyloid nucleation score result was “inactive”.
Then RIEAFLAP, with 1.12 ± 0.18; and NLHAEWMDGSTGRKIAWNNG, with “inactive”.
With VCTPNRCLSTLSR, the amyloid nucleation score result is “inactive”.
On to FPILS, for which the amyloid nucleation score result is “inactive”.
In the case of ELLGGLSLLGMSIFVLLSSL, the amyloid nucleation score result is “inactive”.
In the case of YTNALPAITFVVIGHLAIQ it was 2.64 ± 0.068; in that of YRDCISEGLKLSNWNELLGK, “inactive”.
With WVFNGARKGM, the amyloid nucleation score entry was “inactive”.
On to IRLTVWDVNRDCR, for which the amyloid nucleation score result was “inactive”.
With CFKPILDLGSKCLFVLVVGK, the amyloid nucleation score entry is “inactive”.
In turn, TFRLILILRTSI yielded an amyloid nucleation score of 0.898 ± 0.16.
Substance RSVRFFVKMINFFASY had an amyloid nucleation score of 1.04 ± 0.15.
On to MRPITGVMVLNVSNRQITLF, for which the amyloid nucleation score worked out at 1.72 ± 0.088.
As for HTSPWVELPVGISRTCDEDR, the amyloid nucleation score entry is “inactive”.
RDDMGLESKQDGEP: the amyloid nucleation score entry is “inactive”.
Regarding NDARAVGCTLRYKGLAIYSY, the amyloid nucleation score entry was “inactive”.
In the case of FYGECKSVSGNCLTMNGRYT it was -0.561 ± 0.59; in that of AEWGFVGGIYWYLRKVPRSH, “inactive”; in that of YGMYNMTGNMAFKTPARYIF, “inactive”.
As for LYGGLEHESIMFIRCSGWIC, the amyloid nucleation score result was “inactive”.
Turning to LFLGLIVVGTVLNELSMTNA, the amyloid nucleation score result was “inactive”.
For the substance VRMFRDLLYPAEYLS, the amyloid nucleation score entry is “inactive”.
On to YISLVSWHNGWYSKLICGVV, for which the amyloid nucleation score result was “inactive”.
Take TCRMVRGSMMDSAVV: the amyloid nucleation score result is “inactive”.
Consider RDLCIPWLCRAFFPAMCVVI, for which the amyloid nucleation score entry is “inactive”.
On to QQVLVVQNKCEWGRHIA, for which the amyloid nucleation score result is “inactive”.
Turning to GRNKSLYGIGLVRYVMLVSE, the amyloid nucleation score entry was “inactive”.
Then WSMLPLKNTIAKQ, with “inactive”; and RMDWWYSGCLFMRYPALTAL, with “inactive”; and GVISVFWMLWYLYPSLL, with “inactive”.
IFHFAATHEWYIMYYIDGSP: the amyloid nucleation score entry is “inactive”.
For RQSALRWFSNDNWGICKAHD, the amyloid nucleation score was -0.06 ± 0.87.
Take ILPSYDLFEVVWLVRAD: the amyloid nucleation score result was “inactive”.
In the case of SWRLYMMA it was “inactive”; in that of DDASFIMERI, “inactive”; in that of SWPSASSFDSR, “inactive”.
Take PWSWWTHYTSGCQYQFGYRG: the amyloid nucleation score is -0.749 ± 1.1.
As to WRYVFLVC, the amyloid nucleation score entry is “inactive”.
MISNHCYSLTMIAE yielded an amyloid nucleation score of -0.432 ± 1.
In the case of PDNFNSRFNTRFKTHTRHPT it was “inactive”; in that of GLDRI, “inactive”.
In turn, LYMNFSMDGIASVSLGVLRL showed an amyloid nucleation score of 0.633 ± 0.19.
Regarding DLVFWTINWSPGAHGTTSSG, the amyloid nucleation score result is “inactive”.
Then DFYGCGFTFTRSFFRQWFIG, with 1.09 ± 0.11; and RMYACSWGKSDLSCLMSFGK, with “inactive”; and DECMARLNDWEGYAKD, with “inactive”.
Take FLSGVTWHAYMIHSVFMDRC: the amyloid nucleation score was 0.881 ± 0.21.
Take RYLYTRNLDMTRTL: the amyloid nucleation score entry is “inactive”.
In the case of TPGNNSYAVLMLNELTYKPA it was 0.92 ± 0.13.
As to QTAIIANPSVGGWLSNSHVR, the amyloid nucleation score result is “inactive”.
FGICVDVGRAHIVKRSNRML: the amyloid nucleation score entry is “inactive”.
SLTGLVILMAYRDPPGLAQF returned an amyloid nucleation score of 1.46 ± 0.13.
Then RNRLN, with “inactive”; and KRHYMGTAQGCMGIVLKVFY, with “inactive”.
As for KRSPKIQDL, the amyloid nucleation score entry was “inactive”.
Then RNNVMYVGYEGI, with “inactive”; and IALSLLKTAKIMY, with “inactive”; and LRNSHGDDNVIRLVNNCNSV, with “inactive”.
As for YFGCSYTNQAFGRSDSSYVD, the amyloid nucleation score entry was “inactive”.
For the substance SHVLWDGTWEVGGGGHKA, the amyloid nucleation score result was “inactive”.
Turning to GINHNGRVECNRFKMNY, the amyloid nucleation score result was “inactive”.
Then NRFMVPETVKENIACFQTIQ, with “inactive”; and DQGLNC, with “inactive”; and RHREAGEATTSFNFMRMSGP, with “inactive”.
Regarding NGMGKRGQRSEESISQRSTG, the amyloid nucleation score entry is “inactive”.
Then PFPRNGLFHLFWYGLCYMAL, with “inactive”.
As for IISHKQRSRVIVCSGS, the amyloid nucleation score entry is “inactive”.
With TVTGIMSKYANTSFRN, the amyloid nucleation score result was “inactive”.
Turning to FQARTPACPYVCSS, the amyloid nucleation score entry was “inactive”.
LCGLERLKVMQWHSVPRKHI: the amyloid nucleation score entry is “inactive”.
Then WTDNSVFLTVVINDIRTSTS, with 2.56 ± 0.062; and HYSAFTRQSVSSKDTDT, with -0.582 ± 0.76; and LLIFYGKLMIWGSGHSDTFR, with “inactive”.
For NYSMNARGPVKDLAVFGSRG, the amyloid nucleation score result is “inactive”.
Consider NSLLGHF, for which the amyloid nucleation score result is “inactive”.
For the substance NYFQFLKENFVARNKESRRG, the amyloid nucleation score entry was “inactive”.
With DMVLLWQEFDCGKVACLSGG, the amyloid nucleation score result was “inactive”.
For the substance CEGMKCYVVLTRLRLKKTRT, the amyloid nucleation score result was “inactive”.
Turning to GVRNGPKLILFYLRSWHEAY, the amyloid nucleation score result is “inactive”.
With HKYKQIWMFPEGPV, the amyloid nucleation score entry was “inactive”.
As to LHDNRHYGNLTEAL, the amyloid nucleation score entry is “inactive”.
For FLYRDDDHSYVSESDLNSCS, the amyloid nucleation score result is “inactive”.
Then YYLVSWYVTTVLKSGLLSVR, with “inactive”.
Then DTREN, with “inactive”.
In the case of IWRLCNVPICPSLRGAGHYS, the amyloid nucleation score entry was “inactive”.
